Blank lines part the entries; values can stand above or below the binder they belong to.
Key:
mouse TIFA(1−150/C36S) = target: T1, mouse TIFA(1−150/C36S) (mouse, UniProt Q793I8 1-150, C36S); experiment: crystal structure
T1 sequence (looked up): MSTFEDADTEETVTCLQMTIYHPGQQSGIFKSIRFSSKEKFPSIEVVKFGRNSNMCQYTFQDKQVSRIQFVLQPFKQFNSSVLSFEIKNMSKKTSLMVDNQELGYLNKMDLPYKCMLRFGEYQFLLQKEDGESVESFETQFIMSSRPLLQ

mouse TIFA(1−150) = target: T2, mouse TIFA(1−150) (mouse, UniProt Q793I8 1-150); experiment: SEC
T2 sequence (looked up): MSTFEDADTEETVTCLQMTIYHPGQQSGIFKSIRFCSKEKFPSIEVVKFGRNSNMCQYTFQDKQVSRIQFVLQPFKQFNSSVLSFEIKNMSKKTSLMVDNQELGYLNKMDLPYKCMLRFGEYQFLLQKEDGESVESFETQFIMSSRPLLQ

SEC = target: the molecule itself; experiment: SEC

binding result (mouse TIFA(1−150/C36S)): binds
B1: mouse TIFAB(1−139) (domain or fragment, UniProt Q8JZM6 1-139, looked up)
chain: MERPLTVLQVSLYHPTQGPVAFAHVPQQLQHDASRLLVGRGQNTHLQLQLPQLSRYHLSLEPYLEKGSSLLAFCLKVLTRKSCVWVNGLPLRYLEQVPLGTINRISFSGIQMLVRKEGGASLETFVCYFHLSPSPLIYR

binding result (mouse TIFA(1−150)): binds
B2: mouse TIFAB, full length, coexpressed with TIFA (natural protein, UniProt Q8JZM6 1-147, looked up)
chain: MERPLTVLQVSLYHPTQGPVAFAHVPQQLQHDASRLLVGRGQNTHLQLQLPQLSRYHLSLEPYLEKGSSLLAFCLKVLTRKSCVWVNGLPLRYLEQVPLGTINRISFSGIQMLVRKEGGASLETFVCYFHLSPSPLIYRPKAQETDE

B3: mouse TIFA dimer (natural protein, UniProt Q793I8 1-184, looked up)
chain: MSTFEDADTEETVTCLQMTIYHPGQQSGIFKSIRFCSKEKFPSIEVVKFGRNSNMCQYTFQDKQVSRIQFVLQPFKQFNSSVLSFEIKNMSKKTSLMVDNQELGYLNKMDLPYKCMLRFGEYQFLLQKEDGESVESFETQFIMSSRPLLQENNWPTQNPIPEDGMYSSYFTHRSSPSEMDENEL
stoichiometry N (SEC): 2

From paper PMC10945758 (Proceedings of the National Academy of Sciences of the …, 2024)
